This note sets out measurements from US20030138873A1, “Tissue engineered cartilage for drug discovery” (priority 2002, published 2003).

Test [1] deals with engineered cartilage tissue. The experiment in a line: Cartilage matrix turnover measured without radiolabelling (PG content by DMMB method). The test is classed as cell-based, bovine. As to the method:
(§1) Engineered Cartilage Tissue Formation: Engineered cartilage tissue was prepared as described in U.S. Pat. No. 6,197,061. Briefly, bovine articular chondrocytes were isolated from steer (14-18 months) and cultured in beads of 1.2% low viscosity alginate (Keltone LV, Kelco) at 4 million cells/ml in daily changes of medium containing 20% FBS, 25 μg/ml ascorbate and 10 μg/ml gentamicin, as described above in Mok, et al. On day 7, beads were dissolved by incubation for 20 minutes in 55 mM NaCitrate in 150 mM NaCl. The cells with their CM (cellular matrix) were recovered by mild centrifugation. The cells with their CM were resuspended in complete medium and seeded onto a tissue culture insert (0.4 μm pore size; 23 mm diameter, Falcon). After 7 and 21 days in culture, the de novo formed tissue was separated from the porous membrane and 4 mm diameter discs were punched out using a skin biopsy punch.
Discs of engineered cartilage tissue was punched out from engineered cartilage tissue on day 7 and cultured for 5 days in complete medium with/without IL-1α (1 ng/ml). Engineered cartilage tissue was obtained as described above. On days 1, 2, 3 and 5, the discs were harvested and digested with papain. After digestion the contents of sulfated PG and DNA were measured by the DMMB method and Hoechst 33258-dye method, respectively. […]

Test [2] has as its system engineered cartilage tissue. The experiment in a line: Cartilage matrix turnover measured using radiolabelling (35S-proteoglycan chase). The test is classed as cell-based, bovine. As to conditions: for T½ of 35S-PGs in the tissue (loss of 35S-PGs) / T½ of 35S-PGs, bimodal rate of disappearance from the tissue: IL-1α 1 ng/ml; for T½ of 35S-PGs in the tissue (loss of 35S-PGs): 7-day chase; for T½ of 35S-PGs, bimodal rate of disappearance from the tissue: double exponential decay fit. How it is done: as §1
Discs of engineered cartilage tissue were punched out from engineered cartilage tissue on day 7 and 21 and were incubated for 16 h in complete medium containing ^35S-sulfate (20 μCi/ml). After washing to remove unincorporated radioisotope, the discs were cultured for 7 days in isotope-free medium with or without IL-1α (1 ng/ml). The medium in all cases was changed and collected for the measurement of ^35S-labeled proteoglycans (^35S-PGs). At various times, discs were collected and the content of ^35S-PGs in each disc and the corresponding spent medium fraction was measured by a rapid filtration assay (4). For each set of conditions (i.e. with or without IL-1α) the amount of radiolabeled PGs remaining in each matrix pool was plotted against time of chase to measure the average half-life of ^35S-PGs in each compartment. The data were fitted to the double exponential decay equation: y=ae^−bx+ce^−d+e and the half-life calculated based on b and d. Mok, et al., Aggrecan synthesized by mature bovine chondrocytes suspended in alginate: Identification of two distinct metabolic matrix pool, Biol. Chem., 269, 33021-33027 (1994)

[3] abbreviates: tissue radiolabeled on day 7 [1W].
The mark [4] stands for this setting: tissue radiolabeled on day 21 [3W].

B1: IL-1: cytokine interleukin-1 (IL-1α), known modulator inducing cartilage matrix degradation, used at 1 ng/ml (protein, UniProt P01583 113-271, looked up)
Interleukin-1 alpha: SAPFSFLSNVKYNFMRIIKYEFILNDALNQSIIRANDQYLTAAALHNLDEAVKFDMGAYKSSKDDAKITVILRISKTQLYVTAQDEDQPVLLKEMPEIPKTITGSETNLLFFWETHGTKNYFTSVAHPNLFIATKQDYWVCLAGGPPSITDFQILENQA
For the molecule B1, the “loss of the PGs from the engineered cartilage tissue” value in test [1] (IL-1 at 1 ng/ml, single day of treatment, day 7 discs) amounted to 50%. The “loss of proteoglycan content of engineered cartilage matrix” value in test [1] (within a single day after treatment with IL-1) was “roughly half”. Besides, in test [2] (setting [3]), the “T½ of 35S-PGs in the tissue (loss of 35S-PGs)” value was determined as 41.5 h and the “T½ of 35S-PGs, bimodal rate of disappearance from the tissue” value worked out at 3.6 h. In addition, in test [2] (setting [4]), the “T½ of 35S-PGs in the tissue (loss of 35S-PGs)” value was determined as 49.9 h and the “T½ of 35S-PGs, bimodal rate of disappearance from the tissue” value was found to be 35.5 h. In addition, the “appearance in the medium of 35S-PGs” value in test [2] (addition of IL-1 to the medium (1 ng/ml)) was “rapid increase”.
